Reference: the nanobody polyreactivity screen of Harvey et al. (2022)

Assay: yeast display, Sf9 membrane polyspecificity reagent, FACS + sequencing; frameworks hold sequencing errors
Method in brief: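 Galactose induction of a Saccharomyces cerevisiae BJ5465 synthetic nanobody display library ran 36–48 hours. The cells were then stained for 1 hour at 4 °C with 10% biotinylated, detergent-solubilized Sf9 membrane reagent, pulled down on streptavidin microbeads and FACS-sorted into low and high (top ~1%) gates on expression and reagent-binding fluorescence. Labels for polyreactivity follow the gate of origin.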

Sequence	polyreactivity (PSR sort gate)
QVQLVESGGGLVQAGGSLRLSCAASGSTFQWNAMGWYRQAPGKERELVAAISKSGGRTYYADSVKGRFTISRDNAKNTVYLQMNSLKPEDTAVYYCNALGSLDGRYGYWGQGTQVTVSS	high polyreactivity
QVQLVESRGGIVQAGGSLRLSCAASGRIFQYYAKGWYRQAPGKEWELVAAIISSGGRTYYADSVKGRFTISRDNAKKTVYVQMNSLKPEDTAVYYCNAVLSTRGMDFWGQGTQVTVSS	high polyreactivity
PVQLVESGGGLVQAGGSLRLSCAASGITIYYYGMGWYRQPPGKERELVAAITTGVNTNYADSVKGRFTISRDNAKITVYLQMNSLKPEDTAVYYCAAEYRIPYFFTYGYWGQGTQVTVSS	high polyreactivity
QVQLVESGGGLVQAGGSLRLSCAASGLTFRDNAMGWYRQAPGKERELVATINSGGSTDYADSVKGRFTISRDNAKNTVYLQMNILKPEDTAVYYCAVYREYYDRGWYSIFYWYDYWGQGTQVTVSS	low polyreactivity
QVQLVESGGGLVQAGGSLRLSCAASGRTFWTYAMGWYRLAPGKERELVASISKSGGSTYADSVKGRFTITRDNAKNTVYLQMNSLKPEDTAVYYCATDLSYDVWFFGPDYDYWGQGTQVTVSS	low polyreactivity
QVQLVESGGGLVQAGGSLRLSCAASGFTFYAYAMGWYRQAPGKERELVAAITWSGGRTYYADSVKGRFTISRDNAKNTVYLQMNSLKPEDTAVYYCAKRYWGQARYHTGHDYWGQGTQVTVSS	high polyreactivity
QVQLVESGGGLVQAGGSLRLSCAASGSTFAHYTMGWYRQAPGKERELVAAITRSGGSTYYADSVKGRFTISRDNAKNKVYLQMNSLKPEDTAVYYCAATRQWNILRYDYWGQCTQVTVSS	low polyreactivity
QVQLVESGGGLVQAGGSLRLSCAASGSTFDRNVMGWYRQAPGKERELVAAISRVSSTNYADSVKGRFTFSRDNAKNTVYLLMNSLKPEDTAVYYCAADRAGSIMNYWGQGTQVTVSS	low polyreactivity
QVQLVESGGGLVQAGGSLRLSCAASGYTFLGYAMGWSRQAPGKERELVAAIRRSGGRTYYADSVKGRFTISRDNAKNTVYLQMNSLKPEDTAVYYCAKGYVGEYDYWGQGTQVTVSS	high polyreactivity
QVQLVESGGGLVQAGGSLRLSCAASGYIFGPYAMGWYRQAPGKERELVAAITWRGGRTYADSVKGRFTISRDNAKNTVYLQMNSLKPEDTAVYFCATETGYSPFVYYSGRYGYWGQGTQVNVSS	high polyreactivity
QVQLVESGGGLVQAGGSLRLSCAASGSTFHKYTMGWYRQAPGKEREFVAAITRNGGTTSYADSVKGRFTISRDNAKNTVYLQMNSLKPEDTAVYYCAVKWRRQINYDYWGQGTQVTVSS	high polyreactivity
QVQLVESGGGLVQAGGSLRLSCAASGSIFHANAMGWYRQAPGKERELVAAISQSCDTTYYADSVKGRFTISRDNAKNTVYLQMNSLKPEDTAVYYCAAEEGYGAFWYDYWGQGTQVTVSS	high polyreactivity
QVQLVESGGGLVQAGGSLRLSCAASGLIFVRYAMGWYRQAPGKERELVADISTSDGSTRYADSVKGRFTISRDNEKNTVYLQMNSLKPEDTAVYYCAGGSEYYSYGGVRFSFYYWGQGTQVTVSS	low polyreactivity
QVQLVESGGGLVQAGGSLRLSCAASGFTFGVYAMGWYRQAPGKERELVAAISTTVGSTYYADSVKGRFTISRDNAKNTVYLEMNSLKPEDTAVYYCAAEYTGYINYYIYEYWGQGTQVTVSS	low polyreactivity
QVQLVESGGGLVQAGGSLRLSCAASGSIFVTYGMGWYRQAPGKERELVARITTSGGSTYYADSVKGRFTISRDNAKNTVYLQMNSLKQEDTAVYYCNVRFAWGWTYWRYDYWGQGTQVTVSS	high polyreactivity
QVQLVESGGGLVQAGGSLRLSCAASGSTFFYYTMGWYRQAPGKERELVASITNRGGNTYYADSVKGRFTISRDNAKTTVYLQMNSLKPEDTAVYYCARRYYWYSGRYDYWGQGTQVTVSS	high polyreactivity
QVQLVESGGGLVQAGGSLRLSCAASGSTFRNYAMGWYRQAPGKERELVAAITKRGGTTYYADSVKGRFTISRDNAKNTVYLQMNSLKPEDTAVYYCATRQLSKVKDMDYWGQGTQVTVSS	high polyreactivity
QVQLVESGGGLVQAGGSLRLSCAASGFIFSSNAMGWYRQAPGKERELVARITWSDGSTYYADSVKGRFTISRDNAKNTVYLQMNSLKPEDTAAYYCAKGRDATHYEYYLYSMDYWGQGTQVTVSS	low polyreactivity
QVQLVESGGGLVQAGGSLRLSCAASGLTIQYNAMVWYRQAPGKERELVAAISRSGGSTYYADSVKGRFTISRDNAKNTEYLQMISLKPEDTAVYYCNKVSPYRGYYWGQGTQVTVSS	high polyreactivity
PVQLVESGGGLVQAGGSHRLSCAASGSIFYFNAMGWYRQAPGKERELVAVITDRGSTYYSDSVKGRFTISRDNAKNTVYLQMNSLKPEDTAVYYCAAQTPGVYLRQIGGYYYWGQGTQVTVSS	low polyreactivity
QVQLVESGGGLVQAGGSLRLSCAASGFTFAVYVMGWYRPGRGKERELVAAISRSGGSTYYADSVKGRFTISRDNANNTDYLQMNSLNPEDTAVYYCAASPKRVLRESGDYCGQGTQVTVSS	high polyreactivity
QVQLVESGGGLVQAGGSLRLSCAASGSISYSYAMGWYRQAPGKERELVAAISWRGVSTYYADSVKGRFTISRDNAKNTVYLQMNSLKPEDTAVYYCNAVHHYPEHIGGGYWGQGTQVTVSS	low polyreactivity

Sequence	polyreactivity (PSR sort gate)
QVQLVESGGGLVQAGGSLRLSCAASGFILDNYAMGWYRQAPGKERELVAAISGSGGSTYYADSVKGRFTISRDNAKNTVYLQMNSLKPEDTAVYYCNRDRLLRQYDYWGQGTQVTVSS	high polyreactivity
QVQLVESGGGLVQARGSLRLSCAASGRTFAIYAMGWYRPAPGKEREFVAAISWSGGDTYYADSVKGRFTISRDNAKNTVYLQMNSLKPEDTAVYYCAARDNDYEGRDLQYELDYWGQGSQVTVSS	low polyreactivity
QVQLVESGGGLVQAGGSLRLSCAASGRIFYRYSMGWYRQAPGKERELVAAIRYSGGTTYADSVKGRFTISRDNAKNTVYLQMNSLKPEDTAVYYCAARASLWGGFESWGQGTQVTVSS	high polyreactivity
QVQLVESGGGLVQAGGSLRLSCAASGLTSVRNAMGWYRQAPGKERELVAGISWSGGRTYYADSVKGRFTISRDNAKNTVYLQMNSLKPEDTAVYYCNKVRAYYTQEGSWGQGTQVTVSS	high polyreactivity
QVQLVESGGGLVQAGGSLRLSCAASGRTFFRYAMGWYRQAPGKERELVAAISRSGGGTYYADSVKGRFTISRDNAKNTVYLQMNSLKPEDTAVYYCNRDDYSRNHVYEFDYWGQGTQVTVSS	low polyreactivity
QVQLVESGGGLVQAGGSLRLSCAASGRIFRPYAMGWYRQAPGKERELVASINYSGGSTYADSVKGRFTISRDNAKNTVYLQMNSLKPEDTAVYYCNVYRDGFRYTAWYTGQTFDYWGQGTQVTVSS	low polyreactivity
QVQLVESGGGLVQAGGSLRLSCAASGSTFPPNPMGWYRKATGKERELVSSIRRGGSTHYADSVKGRFTISRDNEKNTVYLQMNSLKPEDTAVYYCAKDVWRHYLNLYDYWGQGTQVTVSS	low polyreactivity
QVQLVESGGGLVQAGGILRLSCAASGIIFDTNAMGWYRQAPGKERELVASISKRGGSTYYADSVKGRFTISRDNAKNTVYFQMNSLKPEDTAVYYCNALRRRLYHDDYWGQGTQVTVSS	high polyreactivity
QVQLVESGGGLVQAGGSLRLSCAASGYTYEYYAMGWYRQAPGKERELVAAISWSGGDTYYADSVKGRFTISRDNAKNTVYIQMNSLKPEDTAVYYCNAVLYTYYYYANWYGAYDYWGQGTQVTVCS	low polyreactivity
QVQLVESGGGLVQAGGSLRLSCAASGTFYWNVMGWYRQAPGKEREFVASITLSGTSTYYADSVKVRFTISRDNAKNTVYLQMNSLKPEDTAVYYCAVAARWPAPVPHYYYWGQGTQVTVSS	low polyreactivity
QVQLVESGGGLVQAGGSLRLSCPASGRIFTYYTMGWYRQAPGKERELVASITGGGGRTYYADSVKGRFTISRDNAKNTVYLQMNSLKPEDTAVYYCNDRYPYPYWYTSYDYWGQGSQVTVSS	high polyreactivity
QDQLVESGGGLVQAGGSLRLSCAASGRIFYPNAMGWYRQAPGKERELVASISRGGPTSYADSVKGRFTISRDNAKNTVYLQMNSLKPEDTAVYYCAADVAWYRYRSYYWGQGTQVTVSS	high polyreactivity
QVQLVDSGVGLVQAGGSLRLSCAASGSIFYQNAMGWYRQAHGSERELVAAITSDGSTYYADSVKGRFTISRDNAKNTVYLQMNSLKPEDTAVYYCPAEYYGHRYDYCGQGTQVTVSS	low polyreactivity
QVQLVESGGGLVQAGGSLRLSCAASGYILRSNAMGWYRQAPGKEREFVAAITYSGGSTYYADSEKGRFTISLDNAMNSVYLQMNSLKPEDTAVYYCAKTTRYQRGYGYWGQGTQVTVSS	low polyreactivity
QVQLVESGGGLVQAGGSLRLSCAASGRIFVDNTMGWYRQAPGKEREFVAVISTSGGRTSYADSVKGRFTISRDNAKNTVYLQMNSLKPEDTAVYYCNALYGRYGWSKNYYWGQGTQVTVSS	high polyreactivity
QVQLVESGGGLVQAGGSLRLSCSASGFTFYVNAMGWYRQAPGKERELVAAITDDGDSTYYADSVKGRFTISRDNAKNTVYLQMNSLKPEDTAVYYCKTVYGPDLDGTEYDYWGQGTQVTVSS	low polyreactivity
QVQLVESGGGIVQAGGSLRLSCAASGRTFKYYAMGWYRQAPGKERELVAAITSTGGSTYYADSVKGRFTISRDNAKNTVYLQMNSLKPEDTAVYYCNRYTQYRDRSDNHWGQGTQVTVSS	high polyreactivity
QVQLVESGGGLVQAGGSLRLSCAASGSTFYDYAMGWYRQAPGKERELVAAMSSSGARTYYADSVKGRFTISRDNAKNSVYLQMNSLKPEDTAVYYCGAKPHTRTTCPSGYWGQATQVTVSS	high polyreactivity
QVQLVESGGGLVQAGGSLRLSCAASGNTFPVYAMGWYRKASGKERELVATITSGGSTNYADSVKGRFTFSRDNAKNTVYLQMNSLKPEDTAVYYCARRAVYSKRRYDYWGHGTQVTVSS	low polyreactivity
QVQLVESGGGLVQAGGSLRLTSAGSGFTFTIYAMGWYRQAPGKERELVATISGRAGRTYYADSVKGRFTISRDNAKNTVYLQMNSLKPEDTAVYYCNAGQWRYPGLYYYWGQGSQVTVSS	high polyreactivity
QVQLVESGGGLVQAGGSLRLSCAASGRTFNTNAMGWYRQAPGKERELVAAISGGGSTYADSVKGRFTISRDNAKNTVYLQMNSLKPEDTAVYYCKAYPPYLYATYDYWGQGTQVTVSS	low polyreactivity
